Test results taken from patent US20180153986A1 (BRIGHAM AND WOMEN S HOSPITAL, published 2018).

Target: T1, human CEACAM1 (carcinoembryonic antigen related cell adhesion molecule 1) (human, UniProt P13688 35-526, limits assumed)
T1 construct: also called hCEACAM1; BGP
T1 sequence: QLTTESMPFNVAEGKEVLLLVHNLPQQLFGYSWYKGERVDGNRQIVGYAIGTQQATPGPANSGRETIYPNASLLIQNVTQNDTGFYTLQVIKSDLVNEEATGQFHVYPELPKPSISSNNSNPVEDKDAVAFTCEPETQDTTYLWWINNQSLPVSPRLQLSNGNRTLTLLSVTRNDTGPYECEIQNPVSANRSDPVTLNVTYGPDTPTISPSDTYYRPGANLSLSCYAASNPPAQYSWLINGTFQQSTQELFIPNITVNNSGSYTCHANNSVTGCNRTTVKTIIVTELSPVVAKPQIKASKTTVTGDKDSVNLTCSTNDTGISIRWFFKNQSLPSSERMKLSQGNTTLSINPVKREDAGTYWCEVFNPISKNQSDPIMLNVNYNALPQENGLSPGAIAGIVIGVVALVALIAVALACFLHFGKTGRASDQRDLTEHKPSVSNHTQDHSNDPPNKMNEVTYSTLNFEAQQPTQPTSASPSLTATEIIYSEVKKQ
Assay: method not described ('as demonstrated herein'); support is structural prediction and co-expression

B1: human TIM-1 (T-cell immunoglobulin and mucin domain-containing protein 1) (receptor)
chain: SVKVGGEAGPSVTLPCHYSGAVTSMCWNRGSCSLFTCQNGIVWTNGTHVTYRKDTRYKLLGDLSRRDVSLTIENTAVSDSGVYCCRVEHRGWFNDMKITVSLEIVPPKVTTTPIVTTVPTVTTVRTSTTVPTTTTVPTTTVPTTMSIPTTTTVLTTMTVSTTTSVPTTTSIPTTTSVPVTTTVSTFVPPMPLPRQNHEPVATSPSSPQPAETHPTTLQGAIRREPTSSPLYSYTTDGNDTVTESSDGLWNNNQTQLFLEHSLLTANTTKGIYAGVCISVLVLLALLGVIIAKKYFFKKEVQQLSVSFSSLQIKALQNAVEKEVQAEDNIYIENSLYATD
notes: also called HAVCR; HAVCR-1
  binding result: binds
